Measured values reported in patent publication US20240101710A1 (ALLOGENE THERAPEUTICS, published 2024).

Molecular target: T1, anti-BCMA antibody clone C29 Fab
T1 construct: also called anti-BCMA clone C29 Fab
Test: Biacore (SPR), 25 C, HEPES buffer pH 7.4
Protocol: E10 purified from the hybridoma cell line supernatant was analyzed by Biacore assay against the antigen anti-BCMA clone C29 Fab. The Biacore assay was run, for example, in 10 mM HEPES buffer, with 150 mM NaCl and 0.05% Tween20 at pH 7.4 and 1 mg/mL BSA at 25° C.

T1 sequence (VH, as listed by the source, chain 1 of 2): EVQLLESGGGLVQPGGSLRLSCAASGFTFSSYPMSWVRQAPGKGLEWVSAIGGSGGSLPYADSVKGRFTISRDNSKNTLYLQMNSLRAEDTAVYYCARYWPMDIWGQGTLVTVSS
T1 sequence (VL, as listed by the source, chain 2 of 2): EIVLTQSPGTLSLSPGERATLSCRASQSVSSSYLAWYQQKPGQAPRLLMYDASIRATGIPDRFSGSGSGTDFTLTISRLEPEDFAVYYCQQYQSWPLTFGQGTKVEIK

- Kd: 0.11 nM
- koff: 0.000157 s⁻¹
- kon: 1.48e+06 M⁻¹ s⁻¹
- t1/2: 1.23 h
B1: anti-idiotypic antibody clone 87B12.E10 (E10), purified from hybridoma cell line (antibody, V domains shown)
VH: QVQLQQSGPGLVQPSQSLSIPCTVSGFSLTSYDVHWVRQSPGKGLEWLGVIWSGGSTGYNAIFRSRLSINKDNSKSQVFFKMTSLQPDDTAIYYCANFSPWYLPSYWDQGTLVTVSA
VL: QIVLTQSPAIMSASPGEKVTITCSASSNVSYMHWFQQKPGTSPKLWIYSTSNLASGVPARFSGSGSGTSYSLTISRMEAEDAATYYCQQRSSYPLTFGAGTKLELK
notes: Mouse (Balb/c) hybridoma antibody; also called E10 purified Ab from hybridoma cell line
